Data as given in paper PMC11707139.

Target: piggyBat transposase (Myotis lucifugus)
Test: AUC; sedimentation velocity, ~3.1 µM purified pBat without DNA, 500 mM NaCl, 25 mM Tris-HCl pH 7.4, 0.5 mM TCEP, 50,000 rpm, 20 °C, c(s) analysis

stoichiometry N: 2
Substance: piggyBat transposase (enzyme)
